Data from paper PMC9307175 (PLoS Pathogens, 2022).

B1: S-peptide and His6 dually-tagged vIRF-1, bacterially expressed (pET-S-vIRF-1-His6) (natural protein)
chain: MDPGQRPNPFGAPGAIPKKPCLSQGSPGTSGSGAPCDEPSRSESPGEGPSGTGGSAAAGDITRQAVVAAITEWSRTRQLRISTGASEGKASIKDWIVCQVNSGKFPGVEWEDEERTRFRIPVTPLADPCFEWRRDGELGVVYIRERGNMPVDASFKGTRGRRRMLAALRRTRGLQEIGKGISQDGHHFLVFRVRKPEEEQCVECGVVAGAVHDFNNMARLLQEGFFSPGQCLPGEIVTPVPSCTTAEGQEAVIDWGRLFIRMYYNGEQVHELLTTSQSGCRISSALRRDPAVHYCAVGSPGQVWLPNVPNLACEIAKRELCDTLDACAKGILLTSSCNGIFCVCYHNGPVHFIGNTVPPDSGPLLLPQGKPTRIFNPNTFLVGLANSPLPAPSHVTCPLVKLWLGKPVAVGKLEPHAPSPRDFAARCSNFSDACVVLEIMPKPLWDAMQ
notes: source: E. coli BL21(DE3), purified (Ni-NTA)

What was measured:
[1] = molecular target: T1, Flag- and His6-tagged STAT2, bacterially expressed (pET-Flag-STAT2-His6) (human, UniProt P52630 1-851); assay: pull-down; details: both partners purified
T1 construct: also called STAT2 (Flag-tagged); recombinant STAT2; source: E. coli BL21(DE3), purified (Ni-NTA)

[2] = molecular target: T2, Flag- and His6-tagged STAT1, bacterially expressed (pET-Flag-STAT1-His6) (human, UniProt P42224 1-750); assay: pull-down; details: both partners purified
T2 construct: also called STAT1 (Flag-tagged); recombinant STAT1; source: E. coli BL21(DE3), purified (Ni-NTA)
T2 sequence: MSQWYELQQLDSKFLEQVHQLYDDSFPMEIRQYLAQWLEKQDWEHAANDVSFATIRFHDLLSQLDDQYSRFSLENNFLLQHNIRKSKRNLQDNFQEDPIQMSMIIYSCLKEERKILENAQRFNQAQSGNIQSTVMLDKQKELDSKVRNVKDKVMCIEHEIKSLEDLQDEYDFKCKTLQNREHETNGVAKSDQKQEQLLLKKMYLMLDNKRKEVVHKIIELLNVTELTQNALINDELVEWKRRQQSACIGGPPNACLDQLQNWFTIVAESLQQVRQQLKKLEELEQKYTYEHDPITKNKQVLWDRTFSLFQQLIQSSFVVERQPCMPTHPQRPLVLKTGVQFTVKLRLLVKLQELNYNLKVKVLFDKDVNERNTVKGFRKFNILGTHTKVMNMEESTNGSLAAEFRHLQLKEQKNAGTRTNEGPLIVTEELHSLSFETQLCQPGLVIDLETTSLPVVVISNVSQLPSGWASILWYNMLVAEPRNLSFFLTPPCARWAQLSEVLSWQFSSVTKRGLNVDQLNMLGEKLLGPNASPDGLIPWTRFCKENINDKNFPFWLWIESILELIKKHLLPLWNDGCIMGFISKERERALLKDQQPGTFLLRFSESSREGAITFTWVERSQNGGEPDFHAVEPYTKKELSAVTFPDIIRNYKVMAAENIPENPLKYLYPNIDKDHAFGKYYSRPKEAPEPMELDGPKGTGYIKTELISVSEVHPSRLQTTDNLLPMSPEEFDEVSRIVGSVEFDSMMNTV

[3] = molecular target: B1; assay: pull-down; details: both partners purified
[4] = molecular target: T3, chitin-binding domain (CBD)-tagged STAT2 (human (HeLa cDNA library), UniProt P52630 1-851); assay: co-IP; details: partners not purified
T3 construct: also called STAT2-CBD; CBD-fused STAT2
T3 sequence (P52630 whole entry, the tested form may be a part): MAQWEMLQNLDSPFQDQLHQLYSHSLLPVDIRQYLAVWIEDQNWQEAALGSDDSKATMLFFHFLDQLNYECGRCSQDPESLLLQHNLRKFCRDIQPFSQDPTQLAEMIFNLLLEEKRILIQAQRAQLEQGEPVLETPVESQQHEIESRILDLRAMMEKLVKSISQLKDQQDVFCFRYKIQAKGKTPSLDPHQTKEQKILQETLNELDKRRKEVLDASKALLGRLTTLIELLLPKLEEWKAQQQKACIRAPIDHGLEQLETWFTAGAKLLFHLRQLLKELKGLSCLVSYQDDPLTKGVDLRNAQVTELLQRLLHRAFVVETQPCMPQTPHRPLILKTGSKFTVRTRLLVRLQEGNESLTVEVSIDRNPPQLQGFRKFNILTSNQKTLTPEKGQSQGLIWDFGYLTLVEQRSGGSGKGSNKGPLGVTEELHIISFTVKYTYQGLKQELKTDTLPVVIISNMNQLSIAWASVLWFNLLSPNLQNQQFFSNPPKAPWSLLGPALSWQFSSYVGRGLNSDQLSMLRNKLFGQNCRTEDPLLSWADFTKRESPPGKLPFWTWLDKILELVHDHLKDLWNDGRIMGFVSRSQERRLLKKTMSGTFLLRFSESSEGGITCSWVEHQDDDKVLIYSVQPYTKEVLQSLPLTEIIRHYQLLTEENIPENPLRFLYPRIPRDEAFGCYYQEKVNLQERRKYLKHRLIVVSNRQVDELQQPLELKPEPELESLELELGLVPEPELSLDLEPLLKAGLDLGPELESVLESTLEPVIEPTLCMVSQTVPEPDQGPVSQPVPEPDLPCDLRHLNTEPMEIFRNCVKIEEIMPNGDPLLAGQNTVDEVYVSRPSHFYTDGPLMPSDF

T1 sequence (P52630 whole entry): as the sequence (P52630 whole entry, the tested form may be a part) above

B1
binding result [1]: binds | binding result [2]: binds

B2: Flag- and His6-tagged IRF9, bacterially expressed (pET-Flag-IRF9-His6) (natural protein)
chain: MASGRARCTRKLRNWVVEQVESGQFPGVCWDDTAKTMFRIPWKHAGKQDFREDQDAAFFKAWAIFKGKYKEGDTGGPAVWKTRLRCALNKSSEFKEVPERGRMDVAEPYKVYQLLPPGIVSGQPGTQKVPSKRQHSSVSSERKEEEDAMQNCTLSPSVLQDSLNNEEEGASGGAVHSDIGSSSSSSSPEPQEVTDTTEAPFQGDQRSLEFLLPPEPDYSLLLTFIYNGRVVGEAQVQSLDCRLVAEPSGSESSMEQVLFPKPGPLEPTQRLLSQLERGILVASNPRGLFVQRLCPIPISWNAPQAPPGPGPHLLPSNECVELFRTAYFCRDLVRYFQGLGPPPKFQVTLNFWEESHGSSHTPQNLITVKMEQAFARYLLEQTPEQQAAILSLV
notes: also called IRF9 (Flag-tagged); recombinant IRF9; source: E. coli BL21(DE3), purified (Ni-NTA)
binding result [3]: binds

B3: StrepII+Flag (SF)-tagged vIRF-1 (natural protein)
chain: MDPGQRPNPFGAPGAIPKKPCLSQGSPGTSGSGAPCDEPSRSESPGEGPSGTGGSAAAGDITRQAVVAAITEWSRTRQLRISTGASEGKASIKDWIVCQVNSGKFPGVEWEDEERTRFRIPVTPLADPCFEWRRDGELGVVYIRERGNMPVDASFKGTRGRRRMLAALRRTRGLQEIGKGISQDGHHFLVFRVRKPEEEQCVECGVVAGAVHDFNNMARLLQEGFFSPGQCLPGEIVTPVPSCTTAEGQEAVIDWGRLFIRMYYNGEQVHELLTTSQSGCRISSALRRDPAVHYCAVGSPGQVWLPNVPNLACEIAKRELCDTLDACAKGILLTSSCNGIFCVCYHNGPVHFIGNTVPPDSGPLLLPQGKPTRIFNPNTFLVGLANSPLPAPSHVTCPLVKLWLGKPVAVGKLEPHAPSPRDFAARCSNFSDACVVLEIMPKPLWDAMQ
binding result [4]: binds

B4: Flag-tagged STAT1 (pCEBZ-STAT1-SF) (natural protein)
chain: MSQWYELQQLDSKFLEQVHQLYDDSFPMEIRQYLAQWLEKQDWEHAANDVSFATIRFHDLLSQLDDQYSRFSLENNFLLQHNIRKSKRNLQDNFQEDPIQMSMIIYSCLKEERKILENAQRFNQAQSGNIQSTVMLDKQKELDSKVRNVKDKVMCIEHEIKSLEDLQDEYDFKCKTLQNREHETNGVAKSDQKQEQLLLKKMYLMLDNKRKEVVHKIIELLNVTELTQNALINDELVEWKRRQQSACIGGPPNACLDQLQNWFTIVAESLQQVRQQLKKLEELEQKYTYEHDPITKNKQVLWDRTFSLFQQLIQSSFVVERQPCMPTHPQRPLVLKTGVQFTVKLRLLVKLQELNYNLKVKVLFDKDVNERNTVKGFRKFNILGTHTKVMNMEESTNGSLAAEFRHLQLKEQKNAGTRTNEGPLIVTEELHSLSFETQLCQPGLVIDLETTSLPVVVISNVSQLPSGWASILWYNMLVAEPRNLSFFLTPPCARWAQLSEVLSWQFSSVTKRGLNVDQLNMLGEKLLGPNASPDGLIPWTRFCKENINDKNFPFWLWIESILELIKKHLLPLWNDGCIMGFISKERERALLKDQQPGTFLLRFSESSREGAITFTWVERSQNGGEPDFHAVEPYTKKELSAVTFPDIIRNYKVMAAENIPENPLKYLYPNIDKDHAFGKYYSRPKEAPEPMELDGPKGTGYIKTELISVSEVHPSRLQTTDNLLPMSPEEFDEVSRIVGSVEFDSMMNTV
notes: also called STAT1-Flag
binding result [4]: binds
